Target: Cys-OmpX labelled with Alexa Fluor 488 (E. coli) (UniProt P0A917)
Assay: MST

- Kd: 800 nM
Substance: E. coli SurA wild type (mature, tag cleaved) (from UniProt P0ABZ6 21-428) (natural protein)

Reference: publication doi:10.1101/2019.12.19.882696
